The text below walks through data of patent publication US9976167B2, “Group of glycosyltransferases and use thereof” (Shanghai Institutes For Biological Sciences, Chinese …, priority 2012, dated 2018).

What all share (assay type): biochemical
A short description of data set [1]: Glycosyltransfering reaction with crude enzyme, substrate F2. Particulars: 35° C., 12 hrs, TLC; for extension of C3 glycosyl of F2 by one more glycosyl (product Rd): crude enzymes of Example 21 (E. coli expression products); for extension of C3 of F2 by one more glycosyl (product Rd): crude enzyme: lysate supernatant of recombinant yeast. As for the experimental part:
(§1) According to the method as in Example 4, the cell lysate of recombinant yeasts expressing gGT13 and gGT30 were used to catalyze PPD and PPT.
(§2) The lysate supernatant of the recombinant yeast expressing empty vectors was used as control. The reaction was conducted under 35° C. for 12 hrs, and then stopped by adding 100 μL of butanol. The product were extracted, dried in vacuum, and dissolved in methanol.
(§3) The glycosyltransfering reactions of ginsenosides Rh2 and F2 were catalyzed by using the lysate supernatant of the recombinant yeasts expressing 3GT1, 3GT2, 3GT3 and 3GT4 as crude enzymes. The 100 μL reaction system is shown as Table 3. The reaction was conducted under 35° C. for 12 hrs, and then stopped by adding 100 μL of butanol. The product were extracted, dried in vacuum, and dissolved in methanol.

Data set [2] can be described thus: Glycosyltransfering activities on ginsengenins and saponins: glycosylation site and specificity (summary). As for the experimental part:
More than 100 predicted cDNA sequences of glycosyltransferases were extracted from the published expression profile data of the Panax plant. 60 cDNAs with full length were cloned, expressed, and subjected to the analysis of glycosyltransfering reaction.
(§4) The lysate supernatant of the recombinant yeasts expressing the empty vector was used as control.
(§5) The reaction was conducted under 35° C. for 12 hrs, then stopped by adding 100 μL of butanol. The product were extracted, dried in vacuum, and dissolved in methanol.
(§6) The glycosyltransfering reactions of ginsenosides and ginsengenins were catalyzed by using the lysis supernatant of the recombinant yeasts expressing 3GT1, 3GT2, 3GT3 and 3GT4 as crude enzymes. The lysis supernatant of recombinant E. coli expressing empty vectors was used as control. The 100 μL reaction system is shown as Table 3. The reaction was conducted under 35° C. for 12 hrs, then stopped by adding 100 μL of butanol. The product were extracted, dried in vacuum, and dissolved in methanol.
as §2, §3

Data set [3] in a line: Glycosyltransfering reaction with crude enzyme, substrate Rh2. Particulars: crude enzymes of Example 21 (E. coli expression products); 35° C., 12 hrs; TLC.
Test in data set [4]: as above
Particulars: crude enzyme: lysate supernatant of recombinant yeast; 35° C., 12 hrs; TLC. How it is done: as §4, §5
The reaction products were first detected by thin layer chromatography (TLC). […]
as §2, §3

A short description of data set [5]: Glycosyltransfering reaction with crude enzyme, substrate PPD. Particulars: UDP-glucose, 35° C., 12 hrs, TLC. How it is done:
as §4, §5
(§7) The reaction products were first detected by thin layer chromatography (TLC).
(§8) The converted products of gGT25 were further identified by HPLC (FIG. 10 and FIG. 11). The retention time of peak 2 was identical to that of the CK standard sample; the retention time of peak 3 was identical to that of PPD. […] Peak 1, also present in the profile of the negative control, indicated its irrelevance to the conversion of PPD. 3 peaks were shown in FIG. 11, the retention time of peak 1 was identical to that of F1 standard sample and peak 3 was identical to that of PPT. […] Peak 2, also present in the profile of the negative control, indicated its irrelevance to the conversion of PPT.
as §1
The cell lysis supernatant of the recombinant E. coli was used as crude enzyme to conduct the glycosyltransfering reaction, and the reaction condition was identical to that of Example 4.
The reaction was conducted under 35° C. for 12 hrs. 100 μL of butanol was added to stop the reaction and the products were extracted. Upon vacuum drying, the product was dissolved by methanol. TLC was first used to detect the reaction product.
as §6
The reaction was conducted under 35° C. for 12 hrs, and then stopped by adding 100 μL of butanol. The product were extracted, dried in vacuum, and dissolved in methanol. The reaction products were first detected by thin layer chromatography (TLC) (FIG. 35).

Data set [6] can be described thus: Glycosyltransfering reaction with crude enzyme, substrate PPT. Particulars: crude enzyme: lysate supernatant of recombinant yeast; UDP-glucose, 35° C., 12 hrs; TLC. As for the experimental part: as §4, §5, §7, §8, §1, §6
Data set [7] can be described thus: Glycosyltransfering reaction with crude enzyme, substrate DM. Particulars: crude enzyme: lysate supernatant of recombinant yeast; UDP-glucose, 35° C., 12 hrs; TLC. How it is done: as §4, §5, §7, §6
The nature of data set [8]: Glycosyltransfering reaction with crude enzyme, substrate CK. Particulars: 35° C., 12 hrs, TLC. How it is done: as §1, §6
Data set [9] in a line: Glycosyltransfering reaction with crude enzyme, substrate 25-OH-PPD. Particulars: 35° C., 12 hrs, TLC. As for the experimental part: as §6
Where [10] appears, read: Table 2, tetracyclic triterpenoid substrates.
The mark [11] stands for this setting: crude enzyme: lysate supernatant of recombinant E. coli, UDP-glucose.

B1: gGT29-4: glycosyltransferase protein with 446 amino acids, SEQ ID NO.: 55 (protein)
chain: MDNQKGRISIALLPFLAHGHISPFFELAKHLSKRNCNIFLCSTPINLSSIKNRISDKDSSASIKLVELHLPSSPDLPPHYHTTNGLPSHLMVPLRNAFETAAPTFSEILKTLNPDLLIYDFNPSWAPEIASSHNIPAVCFIIGGAASFSMSLHSFKNPGEKYPFLDFDDNSNITPEPPSADNMKLLLDFMTCFERSCDIILIKSFRELEGKYFDFYSTLSDKTLVPVGPLVQDPMGHNEDPKTEQFINWLDKRAESTVVFVCFGSEYFLSNEELEEVAIGLEISMVNFIWAVRLIEGEKKGVLPEGFVQRVGDRGLVVEGWAPQARILGHSSTGGFVSHCGWSSITESMKFGVPVIAMARHLDQPLNGKLAAEVGVGMEVVRDENGKYKREGIAEVIRKVVVEKSGEVMRRKARELSEKMKEKGEEEIDRAVEELVQICKKKKDEQ
modifications: Panax ginseng; gGT29-4
For B1, in [1], the “extension of C3 glycosyl of F2 by one more glycosyl (product Rd)” value is reported as “could be extended by one more glycosyl”. Besides, the “glycosylation site: The first glycosyl at C-3” value (“glycosylation site … at C-3” below) in [2] (setting [10]) is on record as “✓”. Besides, the “extension of C3 glycosyl of Rh2 by one more glycosyl (product Rg3)” value in data set [3] is listed as “could not be catalyzed”.

B2: gGT29-6: glycosyltransferase protein with 446 amino acids, SEQ ID NO.: 59 (protein)
chain: MDNQKGRISIVMLPFLAHGHISPFFELAKHLSKRNCNIFLCSTPINLSSIKNRISDKDSSASIKLVELHLPSSPDLPPHYHTTNGLPSHLMVPLRNAFETAAPTFSEILKTLNPDLLIYDFNPSWAPEIASSHNIPAVYFLTTAAASSSIGLHAFKNPGEKYPFPDFYDNSNNTPEPPSADNMKLLHDFIACFERSCDIILIKSFIELEGKYIDLLSTLSDKTLVPVGPLVQDPMGHNEDPKTEQIINWLDKRAESTVVFVCFGSEYFLSNEELEEVAIGLEISMVNFIWAVRLIEGEKKGVLPEGFVQRVGDRGLVVEGWAPQARILGHSSTGGFVSHCGWSSIAESMKFGVPVIAMARHLDQPLNGKLAAEVGVGMEVVRDENGKYKREDIAGVIRKVVVEKSGEVIRRKARELSEKMKEIGEQLIDRAVEELVQICKKKKDEQ
modifications: Panax ginseng; gGT29-6
Consider B2, for which, in data set [1], the “extension of C3 glycosyl of F2 by one more glycosyl (product Rd)” value is “could be extended by one more glycosyl”. The “glycosylation site … at C-3” value in data set [2] (setting [10]) is listed as “✓”. The “extension of C3 glycosyl of Rh2 by one more glycosyl (product Rg3)” value in data set [3] is recorded as “could be extended by one more glycosyl”.

B3: gGT29: glycosyltransferase protein with 442 amino acids, SEQ ID NO.: 26 (protein)
chain: MDNQKGRISIALLPFLAHGHISPFFELAKQLAKRNCNVFLCSTPINLSSIKDKDSSASIKLVELHLPSSPDLPPHYHTTNGLPSHLMLPLRNAFETAGPTFSEILKTLNPDLLIYDFNPSWAPEIASSHNIPAVYFLTTAAASSSIGLHAFKNPGEKYPFPDFYDNSNITPEPPSADNMKLLHDFIACFERSCDIILIKSFRELEGKYIDLLSTLSDKTLVPVGPLVQDPMGHNEDPKTEQIINWLDKRAESTVVFVCFGSEYFLSNEELEEVAIGLEISTVNFIWAVRLIEGEKKGILPEGFVQRVGDRGLVVEGWAPQARILGHSSTGGFVSHCGWSSIAESMKFGVPVIAMARHLDQPLNGKLAAEVGVGMEVVRDENGKYKREGIAEVIRKVVVEKSGEVIRRKARELSEKMKEKGEQEIDRALEELVQICKKKKDEQ
modifications: Panax ginseng; gGT29
As for B3, the “extension of C3 of Rh2 by one more glycosyl (product Rg3)” value in data set [4] was “could be extended by one more glycosyl”. In data set [1], the “extension of C3 of F2 by one more glycosyl (product Rd)” value is reported as “could be extended by one more glycosyl”. For the same molecule, the “glycosylation site … at C-3” value in data set [2] (setting [10]) is given as “✓”.

B4: gGT25-5: glycosyltransferase protein with 472 amino acids, SEQ ID NO.: 20 (protein)
chain: MKSELIFVPVPAFGHLVGMVEMAKLFISRHENLSVTVLISKFFIDTGIDNYNKSLLAKPTPRLTIINLPEIDPQKYLLKPRCAIFPSLIENQKTHVRDVMSRMTQSESTRVVGLLADILFVDIFDIADEFNVPTYVYSPAGAGFLGLAFHLQTLNDDKKQDVTEFRNSDTELLVPSFANPVPAEFLPSIFLEKDGRHDVLLSLYWRCREAKGIIVNTFEELEPYAINSLRMDSMIPPIYPVGPILNLNGEGQNSDEAAVILGWLDDQPPSSVVFLCFGSFGSFPENQVKEIAMGLERSGHRFLWSLRPCISEGETTLQLKYSNLELPAGFLDRTSCVGKVIGWAPQMAILAHEAVGGFVSHCGWNSVLESVWYGMPVATWPMYGEQQLNAFEMVKELGLAVEIEVDYRNEYNKSDFIVKADEIETKIKKLMMDGKNSKIRKKVKEMKEKSRVAMSENGSSYTSLAKLFEEIM
modifications: Panax ginseng; gGT25-5
On to B4, for which the “glycosylation of C20-OH of PPD (product CK)” value in data set [5] (crude enzyme: lysate supernatant of recombinant yeast) is reported as “could not glycosylate the C20-OH”. For the same molecule, in data set [6], the “glycosylation of C6-OH of PPT (product Rg1 or Rh1)” value was “can only glycosylate C6-OH” and the “glycosylation of C20-OH of PPT (product F1)” value is given as “could not glycosylate the C20-OH”. Moreover, the “glycosylation of C20-OH of DM (product 20-O-β-(D-glucopyranosyl)-dammarendiol II)” value in data set [7] was “could not glycosylate the C20-OH”. The “glycosylation site: C6” value in [2] (setting [10]) was “✓”.

B5: gGT29-3: glycosyltransferase protein with 442 amino acids, SEQ ID NO.: 28 (protein)
chain: MDNQEGRISIALLPFLAHGHISPFFELAKQLAKRNCNVFLCSTPINLSSIKNKDSSASIKLVELHLPSSPDLPPHYHTTNGLPSHLMVPLINAFETAGPTFSEILKTLNPDLLIYDFNPSWAPEIASSHNIPAVYFLTTAAASSSIGLHAFKNPGEKYPFPDFYDNSNNTPEPPSADNMKLLHDFIACFERSCDIILIKSFIELEGKYIDLLSTLSDKTLVPVGPLVQDPMGHNEDPKTEQIINWLDKRAESTVVFVCFGSEYFLSNEELEEVAIGLEISMVNFIWAVRLIEGEKKGVLPEGFVQRVGDRGLVVEGWAPQARILGHSSTGGFVSHCGWSSIAESMKFGVPVIAMARHLDQPLNGKLAAEVGVGMEVVRDENGKYKREGIAEVIRKVVVEKSGEVMRRKARELSEKMKEKGEEEIDRAVEELVQICKKKKDAQ
modifications: Panax ginseng; gGT29-3
On to B5, for which the “extension of C3 of Rh2 by one more glycosyl (product Rg3)” value in data set [4] is “could be extended by one more glycosyl”. Further, the “extension of C3 of F2 by one more glycosyl (product Rd)” value in data set [1] is “could be extended by one more glycosyl”. Besides, in [2] (setting [10]), the “glycosylation site … at C-3” value is recorded as “✓”.

B6: 3GT4: glycosyltransferase protein with 458 amino acids, SEQ ID NO.: 43 (protein)
chain: MEREMLSKTHIMFIPFPAQGHMSPMMQFAKRLAWKGLRITIVLPAQIRDFMQITNPLINTECISFDFDKDDGMPYSMQAYMGVVKLKVTNKLSDLLEKQRTNGYPVNLLVVDSLYPSRVEMCHQLGVKGAPFFTHSCAVGAIYYNARLGKLKIPPEEGLTSVSLPSIPLLGRDDLPIIRTGTFPDLFEHLGNQFSDLDKADWIFFNTFDKLENEEAKWLSSQWPITSIGPLIPSMYLDKQLPNDKDNGINFYKADVGSCIKWLDAKDPGSVVYASFGSVKHNLGDDYMDEVAWGLLHSKYHFIWVVIESERTKLSSDFLAEAEAEEKGLIVSWCPQLQVLSHKSIGSFMTHCGWNSTVEALSLGVPMVALPQQFDQPANAKYIVDVWQIGVRVPIGEEGVVLRGEVANCIKDVMEGEIGDELRGNALKWKGLAVEAMEKGGSSDKNIDEFISKLVSS
modifications: Panax ginseng; 3GT4
For the molecule B6, the “substrate that could be catalyzed: PPD” value in data set [5] (crude enzyme: lysate supernatant of recombinant E. coli) is recorded as “✓”. The “glycosylation of C3-OH of CK (product F2)” value in [8] (crude enzyme of Example 11) is listed as “further glycosylating its C3-OH”. Moreover, the “substrate that could be catalyzed: CK” value in [8] (setting [11]) is “✓”. In data set [9] (crude enzyme of Example 11), the “glycosylation of C3-OH of 25-OH-PPD (product 3-O-β-(D-glucopyranosyl)-25-OH-PPD)” value was “could be glycosylated”. Further, the “substrate that could be catalyzed: 25-OH-PPD” value in [9] (setting [11]) is “✓”. The “glycosylation site: C-3” value in data set [2] (setting [10]) was “✓”. Moreover, in [2] (comparison of 3GT1, 3GT2, 3GT3 and 3GT4, Table 6), the “substrate spectrum / specificity” value was “best specificity”.
